Residue numbers refer to the chain shown, from its start.
B1: 77G10 (antibody, V domains shown)
VH: QSLEESGGRLVTPGTPLTLTCTASGFSLSSYYMSWVRQAPGKGLEYIGIISSSGSTDYASWAKGRFTISKTSTTVDLKITSPTTEDTATYFCARGWLDLWGQGTLVTVSS
VL: AAVLTQTPSPVSAAVGGTVSISCQSSKSVYNNNWLSWLQQKPGQPPKLLIHGASTLASGVPSRFKGSGSGTQFTLTISDVQCDDAATYYCAGGYSSSTDNAFGGGTEVVVK
notes: also called recombinant anti-DXd mAb 77G10
B2: 29D2 (antibody, V domains shown)
VH: QSVEESGGRLVTPGTPLTLTCTASGFSLSSYAMNWVRQAPGKGLEYIGIIYDSGTTYYASWAKGRFTISKTSTTVDLKITSPTTEDTATYFCARAALDIWGPGTLVTVSS
VL: B1 VL with S25A, L38V, K41T, H51Y, S95G, T98S, K111E
notes: also called recombinant anti-DXd mAb 29D2
B3: 28C8 (antibody, V domains shown)
VH: B2 VH with A23V, T55S, S60N, A95G, A96Y
VL: B1 VL with N33K, H51Y, Q72E, S96I, T98S
notes: also called recombinant anti-DXd mAb 28C8
B4: 76G4 (antibody, V domains shown)
VH: QSVEESGGRLVTPGTPLTLTCTASGFSLSSYYMFWVRQAPGKGLEYIGYIGDGGYTSYATWAKGRFTISKTSSTTVDLKITSPTTEDTATYFCARDGFTSGSIWGPGTLVTVSS
VL: B1 VL with A13T, S20T, S28N, L38F, H51Y, A53T, T98S, A101G, G104A
notes: also called recombinant anti-DXd mAb 76G4
B5: 35D6 (antibody, V domains shown)
VH: QSVEESGGRLVTPGTPLTLTCTVSGFSLSSHWMSWVRQAPGKGLEWIGIISSSGSTDYVSWAKGRFTISKTSTTVDLKITSPTTEDTATYFCARDLGYSTNIWGPGTLVTVSL
VL: AYDMTQTPASVEVTVGGTVTIKCQASQSIGSYLAWYQQKPGQRPKLLIYDASTLASGVSSRFKGSGSGTQFTLTISGVECADAATYYCQQGYSSSGVDNAFGGGTEVVVK
notes: also called recombinant anti-DXd mAb 35D6

Molecular target: T1, DXd-conjugated antigen
T1 construct: also called DXd conjugated antigens
Test: competitive ELISA: coated DXd-conjugated antigen, antibody titrated with 1 ug/ml free biotin-DXd (small molecule) as competitor, streptavidin-HRP detection

Binder	IC50
B1	0.953 ng/mL
B2	1.26 ng/mL
B3	1.58 ng/mL
B4	0.753 ng/mL
B5	5.24 ng/mL

— patent publication US20250026859A1 (BEIGENE, published 2025)
